Data: PMC10385607 (2023)
Changes are numbered by the printed parent chain. Blank lines part the entries; values can stand above or below the binder they belong to.

Legend:
[1] = target: T1, Human ALCAM (28–501)-6xhistidine tag (human, UniProt Q13740 28-501); experiment: SPR
T1 chain: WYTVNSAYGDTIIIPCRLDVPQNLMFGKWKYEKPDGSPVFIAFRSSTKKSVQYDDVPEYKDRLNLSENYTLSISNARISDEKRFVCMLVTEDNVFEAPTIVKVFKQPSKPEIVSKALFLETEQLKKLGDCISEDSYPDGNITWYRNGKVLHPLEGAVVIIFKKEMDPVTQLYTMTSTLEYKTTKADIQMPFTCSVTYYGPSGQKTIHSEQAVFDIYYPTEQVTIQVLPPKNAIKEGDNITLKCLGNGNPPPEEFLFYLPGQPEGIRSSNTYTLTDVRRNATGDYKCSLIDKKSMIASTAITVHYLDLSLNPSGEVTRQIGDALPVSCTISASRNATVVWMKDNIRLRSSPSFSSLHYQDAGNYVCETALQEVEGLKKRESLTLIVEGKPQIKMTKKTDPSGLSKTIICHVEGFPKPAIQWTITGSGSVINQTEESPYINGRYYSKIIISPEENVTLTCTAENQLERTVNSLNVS

[2] = target: T1, Human ALCAM (28–501)-6xhistidine tag; experiment: ELISA; competition with CD6-Fc
[3] = target: T1, Human ALCAM (28–501)-6xhistidine tag; experiment: SPR

B1: scFv IF8 (scFv, V domains shown)
VH: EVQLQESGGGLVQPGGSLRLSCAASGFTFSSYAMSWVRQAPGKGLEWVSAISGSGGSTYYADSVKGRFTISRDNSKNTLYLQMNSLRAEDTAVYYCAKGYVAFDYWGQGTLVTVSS
VL: SSELTQDPAVSVALGQTVRITCQGDSLRSYYASWYQQKPGQAPVLVIYGKNNRPSGIPDRFSGSSSGNTASLTITGAQAEDEADYYCNSSPPFSAEVVFGGGTKLTVL
koff [1]: 0.00114 s⁻¹

B4: scFv OPT (scFv, V domains shown)
VH: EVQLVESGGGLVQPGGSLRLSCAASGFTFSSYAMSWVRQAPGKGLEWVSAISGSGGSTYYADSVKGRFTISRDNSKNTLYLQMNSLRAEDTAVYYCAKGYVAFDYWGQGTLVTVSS
VL: SSVLTQPPSVSVAPGQTARITCQGDSLRSYYASWYQQKPGQAPVLVVYGKNNRPSGIPERFSGSSSGNTATLTISRVEAGDEADYYCNSSPPFSAEVVFGGGTKLTVL
koff [1]: 0.0011 s⁻¹ | IC50 [2]: 69.2 nM | Kd [3]: 12.7 nM

B5: scFv V2D7 (scFv, V domains shown)
VH: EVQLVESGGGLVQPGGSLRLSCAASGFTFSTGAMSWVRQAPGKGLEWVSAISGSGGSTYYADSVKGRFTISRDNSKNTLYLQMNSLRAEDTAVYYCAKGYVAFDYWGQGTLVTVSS
VL: B4 VL with Y30G
koff [1]: 0.000127 s⁻¹ | Kd [3]: 2.62 nM

Continued by falling Kd [3], values first:

koff [1]: 9.12e-05 s⁻¹ | IC50 [2]: 29.2 nM | Kd [3]: 5.08 nM
B3: scFv V20C10NC (scFv, V domains shown)
VH: EVQLVESGGGLVQPGGSLRLSCAASGFTFSTGAMSWVRQAPGKGLEWVSAISGTGGTTYYADSVKGRFTISRDNSKNTLYLQMNSLRAEDTAVYYCAKGYVAFDYWGQGTLVTVSS
VL: B4 VL with Y30G, G49P, N51M, N52S

IC50 [2]: 31.3 nM | Kd [3]: 2.52 nM
B2: scFv V200G1 (scFv, V domains shown)
VH: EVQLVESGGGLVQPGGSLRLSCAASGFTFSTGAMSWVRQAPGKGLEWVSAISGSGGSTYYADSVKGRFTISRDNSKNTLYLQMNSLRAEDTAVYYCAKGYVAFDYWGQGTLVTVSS
VL: B4 VL with Y30G, N51T, N52G
